The first data set addresses T1, HIV-1 reverse transcriptase p66/p51 (HIV-1, UniProt P03366;P03366 600-1159;600-1039). Kind of data set: filter binding.
UCGUG (ssRNA) [Hex-S3R pentamer, 3'-shortened]: the binding result is recorded as “no binding”.

Take CGUGU (ssRNA) [Hex-S3R pentamer, 5'-shortened]: the binding result is “no binding”.

For another data set, the target named is HIV-2 reverse transcriptase (HIV-2, UniProt P04584;P04584 613-1171;613-1051). Kind of data set: filter binding.
HIV-2 reverse transcriptase, sequence (P04584 613-1171, chain 1 of 2): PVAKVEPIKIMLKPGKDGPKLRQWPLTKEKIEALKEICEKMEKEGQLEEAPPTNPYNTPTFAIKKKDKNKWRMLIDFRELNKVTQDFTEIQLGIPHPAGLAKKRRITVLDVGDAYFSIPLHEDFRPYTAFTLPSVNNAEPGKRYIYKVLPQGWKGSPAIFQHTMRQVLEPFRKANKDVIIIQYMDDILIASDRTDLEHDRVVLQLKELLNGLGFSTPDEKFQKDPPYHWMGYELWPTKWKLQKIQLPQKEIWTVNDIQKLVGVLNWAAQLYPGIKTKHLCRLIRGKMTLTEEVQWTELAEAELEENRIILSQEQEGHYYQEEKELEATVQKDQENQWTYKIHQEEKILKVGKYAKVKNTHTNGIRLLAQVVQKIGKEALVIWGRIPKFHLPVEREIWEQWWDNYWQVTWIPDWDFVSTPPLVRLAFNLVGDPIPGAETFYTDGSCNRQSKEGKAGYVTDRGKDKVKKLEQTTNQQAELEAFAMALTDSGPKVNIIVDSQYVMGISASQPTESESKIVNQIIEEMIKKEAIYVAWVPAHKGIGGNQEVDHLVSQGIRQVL
HIV-2 reverse transcriptase, sequence (P04584 613-1051, chain 2 of 2): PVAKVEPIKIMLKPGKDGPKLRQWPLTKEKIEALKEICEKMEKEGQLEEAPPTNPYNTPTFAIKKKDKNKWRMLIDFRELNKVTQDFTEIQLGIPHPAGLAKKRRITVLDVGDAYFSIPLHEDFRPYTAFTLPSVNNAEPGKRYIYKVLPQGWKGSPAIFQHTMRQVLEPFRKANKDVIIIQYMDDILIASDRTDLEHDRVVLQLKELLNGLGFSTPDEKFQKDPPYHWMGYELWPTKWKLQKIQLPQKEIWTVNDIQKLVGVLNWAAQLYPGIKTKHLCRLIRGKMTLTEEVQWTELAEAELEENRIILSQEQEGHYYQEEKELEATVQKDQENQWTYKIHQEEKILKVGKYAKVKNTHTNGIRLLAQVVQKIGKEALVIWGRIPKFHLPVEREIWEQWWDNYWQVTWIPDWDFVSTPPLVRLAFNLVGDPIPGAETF
TCGTGT (XNA, phosphorothioate) [Hex-S3D-PS]: the binding signal was 24.9 ± 3.6 relative binding (unit not printed).

With CGACCG (XNA, phosphorothioate) [Hex-S1D-PS], the binding signal is 6.6 ± 1.7 relative binding (unit not printed).

A further data set concerns the target T1, HIV-1 reverse transcriptase p66/p51. Kind of data set: filter binding. The source holds these as a separate data set.
For the molecule TCGTGT (XNA, LNA at position 1) [Hex-S3D-LNA], the binding signal was 4.3 ± 0.4 relative binding (unit not printed).

Regarding TCGTGT (XNA, phosphorothioate) [Hex-S3D-PS], the binding signal was 52.8 ± 9.8 relative binding (unit not printed).

Regarding CGACCG (XNA, fully 2'-OMe) [Hex-S1D-2'OMe], the binding signal is 0.5 ± 0.1 relative binding (unit not printed).

With TCGTGT (ssDNA) [Hex-S3D], the binding signal is 8.1 ± 1 relative binding (unit not printed).

Consider TCGTGT (XNA, fully 2'-OMe) [Hex-S3D-2'OMe], for which the binding signal is 2 ± 0.1 relative binding (unit not printed).

UCGUGU (XNA, 4-thio-U at position 4) [4-thioU-Hex-S3R]: the binding signal is 9.8 ± 0.5 relative binding (unit not printed).

In the case of CGACCG (ssDNA) [Hex-S1D], the binding signal was 5.8 ± 0.6 relative binding (unit not printed).

Regarding CGACCG (XNA, phosphorothioate) [Hex-S1D-PS], the binding signal was 18.3 ± 6 relative binding (unit not printed).

For another data set the target is unchanged. Kind of data set: filter binding. This is another data set of the same source.
For the molecule UCGUGU (ssRNA) [Hex-S3R], the Kd (in general, a measure of binding affinity in units of concentration) came to 5.3 ± 0.5 µM.

Values taken from article PMC1635251.
